Assay results: the supplement of paper PMC10567573

B1: NP_116010.1 (parent)
chain: HSLRAVSTDPPHHDHHDEFCLMP

Key:
[1] = variants of: B1; test: protein stability index of a GFP-peptide fusion (GPS, HEK-293T) (PSI 1-6); higher = more stable; settings: c terminus: native
[2] = variants of: B1; test: as above; settings: c terminus: native; remark: listed apart in the source

Row | Variant | protein stability index [1] | protein stability index [2]
1 | A5L | 2.4 | 3.4
2 | A5T | 2.38 | 2.67
3 | A5D | 3.02 | 1.7
4 | A5I | 2.56 | 2.96
5 | A5M | 1.9 | 2.19
6 | A5F | 2.79 | 3.93
7 | A5W | 2.96 | 4.16
8 | A5G | 3.03 | 2.44
9 | A5K | 2.94 | 2.07
10 | A5H | 2.54 | 1.69
11 | A5N | 2.54 | 2.18
12 | A5E | 2.51 | 2.01
13 | A5C | 2.6 | 2.2
14 | A5Q | 2.5 | 2
15 | A5S | 2.87 | 2.34
16 | A5V | 2.37 | 3.93
17 | L3S | 3.2 | 2.59
18 | L3I | 2.39 | 3.18
19 | L3K | 2.76 | 2.04
20 | L3A | 2.35 | 2.02
21 | L3E | 2.28 | 2.11
22 | L3W | 2.23 | 2.47
23 | L3Y | 2.38 | 
24 | L3R | 2.82 | 2.21

Row | Variant | protein stability index [1] | protein stability index [2]
25 | L3D | 2.5 | 2.14
26 | L3M | 2.43 | 3.08
27 | L3H | 2.57 | 2.9
28 | L3T | 2.22 | 2.75
29 | L3V | 2.75 | 1.7
30 | L3G | 3.07 | 2.46
31 | L3Q | 2.78 | 2.52
32 | L3N | 3.45 | 2.59
33 | L3C | 2.38 | 1.7
34 | S2I | 2.49 | 2.83
35 | S2H | 2.69 | 1.95
36 | S2F | 2.24 | 3.2
37 | S2C | 2.64 | 2.73
38 | S2D | 3.12 | 2.45
39 | S2N | 3.12 | 2.72
40 | S2E | 2.65 | 2.29
41 | S2A | 2.31 | 3.34
42 | S2V | 2.21 | 2.88
43 | S2W | 1.9 | 1.23
44 | S2T | 2.04 | 2.11
45 | S2M | 2.41 | 2.38
46 | S2Y | 2.5 | 3.18
47 | S2R | 2.73 | 1.58
48 | S2L | 2.53 | 2.93

Row | Variant | protein stability index [1] | protein stability index [2]
49 | S2K | 2.58 | 1.89
50 | S2Q | 2.6 | 2.68
51 | R4V | 2.23 | 1.96
52 | R4E | 3.58 | 2.41
53 | R4I | 2.92 | 1.55
54 | R4C | 2.69 | 3.21
55 | R4W | 2.38 | 2.9
56 | R4K | 2.58 | 1.8
57 | R4L | 2.73 | 3.03
58 | R4Q | 3.06 | 1.83
59 | R4G | 3.32 | 2.64
60 | R4M | 2.45 | 2
61 | R4F | 2.11 | 2.22
62 | R4T | 3.08 | 2.84
63 | R4A | 3.09 | 1.82
64 | T8A | 2.75 | 4.04
65 | T8E | 2.45 | 2.89
66 | T8H | 2.48 | 1.79
67 | T8D | 2.53 | 2.23
68 | T8G | 2.68 | 2.59
69 | T8C | 2.93 | 2.64
70 | T8I | 2.59 | 2.13
71 | T8F | 2.38 | 1.87
72 | S7D | 2.81 | 2.26

Row | Variant | protein stability index [1] | protein stability index [2]
73 | S7I | 2.4 | 2.93
74 | S7V | 2.39 | 2.7
75 | S7M | 2.74 | 2.65
76 | S7Y | 2.31 | 2.02
77 | S7L | 2.08 | 
78 | S7N | 2.27 | 2.64
79 | S7Q | 2.58 | 3.14
80 | S7T | 2.33 | 3.06
81 | S7F | 2.23 | 
82 | S7R | 2.36 | 1.88
83 | S7C | 2.48 | 2.82
84 | S7W | 2.31 | 3.98
85 | S7G | 2.58 | 2.83
86 | S7H | 2.53 | 
87 | V6C | 2.52 | 2.93
88 | V6G | 2.9 | 2.49
89 | V6I | 2.27 | 2.17
90 | V6L | 2.35 | 3.23
91 | V6N | 2.98 | 2.76
92 | V6S | 2.62 | 3.49
93 | V6D | 2.64 | 2.57
94 | V6M | 2.51 | 2.68
95 | V6K | 2.72 | 2.02
96 | V6F | 1.92 | 2.8

Row | Variant | protein stability index [1] | protein stability index [2]
97 | V6A | 3 | 2.57
98 | V6Y | 2.41 | 3.34
99 | V6R | 2.19 | 2.37
100 | H1T | 3.55 | 2.54
101 | H1K | 3.29 | 2.43
102 | H1D | 3.42 | 3.31
103 | H1C | 2.68 | 2.48
104 | H1F | 2.24 | 
105 | H1I | 2.75 | 1.82
106 | H1W | 2.18 | 1.93
107 | H1Q | 3.06 | 1.9
108 | H1E | 3.5 | 2.41
109 | H1Y | 2.63 | 1.19
110 | H1P | 3.39 | 2.21
111 | H1N | 3.37 | 1.64
112 | H1R | 2.68 | 2.35
113 | H1L | 3.11 | 1.68
114 | H1M | 2.8 | 1.72
115 | H1G | 3.41 | 2.65
116 | H1A | 3.26 | 1.49
117 | H1S | 3.04 | 2.26
